Data: the supplement of paper PMC10567573

B1: ZNF263 (parent)
chain: CSECGESFSRSSRLMSHQRTHTG
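Also: lentivirally expressed fusions sorted by FACS into six bins by GFP to DsRed ratio, PSI derived from sequencing read proportions per bin multiplied by bin number.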

Variants of: B1
Assay: protein stability index of a GFP-peptide fusion (GPS, HEK-293T) (PSI 1-6); higher = more stable
Conditions: c terminus: native
In the case of E3P, the protein stability index is reported as 1.33. In the case of E3F, the protein stability index is reported as 3.31. Variant E3H has a protein stability index of 2.56. With E3Q the protein stability index was 3.33. E3V showed a protein stability index of 4.21. With E3G the protein stability index was 1.71. Work on E3W yielded a protein stability index of 3.35. With E3A the protein stability index was 2.37. E3T gave a protein stability index of 3.74. In the case of E3Y, the protein stability index is reported as 3.54. Work on E3C yielded a protein stability index of 1.8. E3L gave a protein stability index of 2.9. In the case of E3R, the protein stability index is reported as 2.12. For E3N, the protein stability index was 2.58. In the case of E3M, the protein stability index is reported as 2.26. With E3K the protein stability index was 2.68. With E3I the protein stability index was 4.09. In the case of E3D, the protein stability index is reported as 2.67. E3S showed a protein stability index of 1.87. With S9Q the protein stability index was 1.94. For S9D, the protein stability index was 4.09. S9G showed a protein stability index of 2.23. S9A gave a protein stability index of 2.54. For S9R, the protein stability index was 2.37. S9L showed a protein stability index of 2.03. For S9P, the protein stability index was 1.74. S9C showed a protein stability index of 2.35. S9V showed a protein stability index of 2.42. For S9K, the protein stability index was 2.23. Variant S9I has a protein stability index of 2.4. In the case of S9Y, the protein stability index is reported as 3.1. S9W gave a protein stability index of 2.84. With S9H the protein stability index was 2.99. S9M showed a protein stability index of 2.68. S9N showed a protein stability index of 2.67. Variant S9T has a protein stability index of 2.98. In the case of S9E, the protein stability index is reported as 3.67. Work on S9F yielded a protein stability index of 2.58. S2W showed a protein stability index of 2.21. S2L gave a protein stability index of 2.67. Variant S2Q has a protein stability index of 2.84. With S2V the protein stability index was 3.85. Work on S2H yielded a protein stability index of 2.35. Variant S2D has a protein stability index of 2.99. S2C gave a protein stability index of 1.79. For S2Y, the protein stability index was 2.22. S2K showed a protein stability index of 2.51. For S2A, the protein stability index was 2.4. S2F showed a protein stability index of 1.91. S2E gave a protein stability index of 3.24. S2P gave a protein stability index of 4.06. S2M gave a protein stability index of 3.38. Variant S2G has a protein stability index of 2.86. Work on S2N yielded a protein stability index of 2.62. Work on S2R yielded a protein stability index of 2.92. Variant S2I has a protein stability index of 2.77. In the case of S2T, the protein stability index is reported as 2.54. Variant C4G has a protein stability index of 1.82. Work on C4N yielded a protein stability index of 2.11. With C4Q the protein stability index was 1.53. With C4A the protein stability index was 1.56. C4E gave a protein stability index of 1.8. With C4V the protein stability index was 2.12. C4L showed a protein stability index of 1.81. In the case of C4D, the protein stability index is reported as 2.31. Variant C4I has a protein stability index of 1.74. Variant C4K has a protein stability index of 1.42. For C4M, the protein stability index was 1.85. C4F showed a protein stability index of 1.24. C4P gave a protein stability index of 1.51. C4T showed a protein stability index of 1.56. For C4R, the protein stability index was 1.15. For C4H, the protein stability index was 1.4. With G5Q the protein stability index was 2.03. With G5N the protein stability index was 2.2. With G5K the protein stability index was 1.29. For G5W, the protein stability index was 1.88. For G5V, the protein stability index was 1.03. G5L gave a protein stability index of 1.92. Work on G5Y yielded a protein stability index of 2.33. Variant G5A has a protein stability index of 2.77. G5P showed a protein stability index of 1.89. With G5H the protein stability index was 1.64. With G5F the protein stability index was 3.91. G5S showed a protein stability index of 1.69. Variant G5R has a protein stability index of 1.4. G5E showed a protein stability index of 1.41. Work on G5I yielded a protein stability index of 2.23. Work on G5C yielded a protein stability index of 2.33. G5T showed a protein stability index of 2.3. With G5D the protein stability index was 1.79. E6L gave a protein stability index of 3.22. In the case of E6K, the protein stability index is reported as 3.25. Work on E6H yielded a protein stability index of 2.05. E6W showed a protein stability index of 2.02. E6F gave a protein stability index of 1.61. In the case of E6Y, the protein stability index is reported as 1.56. Variant E6R has a protein stability index of 3.9. With E6D the protein stability index was 1.89. Variant E6T has a protein stability index of 1.76. With E6I the protein stability index was 2.15. E6A gave a protein stability index of 3.66. With E6Q the protein stability index was 2.96. For E6P, the protein stability index was 1.92. E6V gave a protein stability index of 2.97. In the case of E6S, the protein stability index is reported as 2.94. Work on E6N yielded a protein stability index of 1.73. With E6M the protein stability index was 3.42. Variant E6C has a protein stability index of 2.52. In the case of S7G, the protein stability index is reported as 2.35. Variant S7M has a protein stability index of 3.59. In the case of S7I, the protein stability index is reported as 3.88. For S7Y, the protein stability index was 3.8. Variant S7N has a protein stability index of 2.64. Variant S7E has a protein stability index of 3.51. With S7H the protein stability index was 2.58. Variant S7V has a protein stability index of 4.13. S7D gave a protein stability index of 1.84. In the case of S7C, the protein stability index is reported as 2.67. Variant S7P has a protein stability index of 2.63. For S7W, the protein stability index was 3.75. Work on S7R yielded a protein stability index of 2.33. For S7A, the protein stability index was 2.94. Work on S7L yielded a protein stability index of 3.6. S7Q gave a protein stability index of 3.41. With S7K the protein stability index was 2.72. S7T gave a protein stability index of 3.69. F8N gave a protein stability index of 1.92. F8G gave a protein stability index of 2.58. F8L gave a protein stability index of 1.37. With F8T the protein stability index was 2.04. In the case of F8P, the protein stability index is reported as 1.91. Variant F8S has a protein stability index of 2.11. F8E showed a protein stability index of 3.32. F8D gave a protein stability index of 2.63. In the case of F8Y, the protein stability index is reported as 2.39. With F8M the protein stability index was 2.21. With F8K the protein stability index was 2.14. With F8A the protein stability index was 1.35. With F8I the protein stability index was 1.21. F8R gave a protein stability index of 2.2. With F8W the protein stability index was 3.15. For F8Q, the protein stability index was 2.16. F8C gave a protein stability index of 2. In the case of F8H, the protein stability index is reported as 2.13. With C1W the protein stability index was 1.56. For C1V, the protein stability index was 1.59. Variant C1K has a protein stability index of 2.05. C1R showed a protein stability index of 2.32. For C1A, the protein stability index was 2.23. With C1Q the protein stability index was 2.46. C1P showed a protein stability index of 3.14. In the case of C1N, the protein stability index is reported as 2.31. Work on C1E yielded a protein stability index of 3.15. Work on C1S yielded a protein stability index of 2.14. In the case of C1T, the protein stability index is reported as 2.06. Variant C1D has a protein stability index of 1.84. In the case of C1H, the protein stability index is reported as 2.11. With C1G the protein stability index was 2.36. C1L showed a protein stability index of 1.75. Variant C1I has a protein stability index of 2.1. C1M showed a protein stability index of 2.22. Variant C1Y has a protein stability index of 1.9. In the case of C1F, the protein stability index is reported as 1.49. In the case of R10A, the protein stability index is reported as 2.98. In the case of R10C, the protein stability index is reported as 4.11. In the case of R10D, the protein stability index is reported as 5.6.
